Measurements from the RNAGym collection of RNA variant scans (doi:10.1073/pnas.2313332121).

B1: TPR t1 (parent)
chain: GACCAAUCUGCCCUCAGAGCUCGAGAACAUCUUCGGAUGCAGAGGAGGCAGGCUUCGGUGGCGCGAUAGCGCCAACGUCCUCAACCUCCAAUGCAUCCCACCACAUGAUGAUGCCUGAAGAGCCUUGGUUUUUUG

Variants of: B1
Assay: polymerase ribozyme fitness, log enrichment relative to wild type (log ratio); higher = more active; in vitro selection for triplet polymerase activity
Procedure, shortened: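 Mutant libraries of both subunits of a heterodimeric triplet polymerase ribozyme were PCR-built, transcribed, and selected once in triplicate, with frozen incubation at −7 °C and capture of gel-excised extended constructs on streptavidin beads before RT-PCR. Illumina sequencing of input and output libraries was filtered to genotypes with ≥10 input reads and ≥1 read per output. Fitness is the logarithm of genotype enrichment over wild-type enrichment, using inverse-variance-weighted replicate averages. The logarithm is base 2.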

Going from GACCAAUCUGCCCUCAGAGCUCGAGAACAUCUUCGGAUGCAGAGGAGGCAGGCUUCGGUGGCGCGAUAGCGACAACGUCCUCAACCACCAAUGCAUCCCACCACAUGAUGAUGCCUGAAGAGCCUUGGUUUUUUG to GACCAAUCUGCCCUCAGAGCUCGAGAACAUCUUCGGAUGCAGAGGAGGCAGGCUUCGGUGGCGCGAUAGGGCCAACGUCCUCAACCUCCAAUGCAUCCCACCACAUGAUAAUGCCUGAAGAGCCUUGGUUUUUUG, the “polymerase ribozyme fitness (log ratio)” value falls from 0.169 to -4.37.

Compared with GACCAAUCUGCCCUCAGGGCUCGAGAACAUCUUCGGAUGCAGAGGAGGCAGGCUUCGGUGGCGCGAUAGCGCCAACGUCCUCAACCUCCAAUGCAUCCCACCACAUGAUGAUGCCUGAAUAGCCUUGGUUUUUUG, GACCAAUCUGCCCUCAGAGCUCGAGAACAUCUUCGGAUGCAGAGAAGGCAGGCUACGGUGGCGCGAUAGCGCCAACGUCCUCAACCUCCAAUGCAUCCCACCACAUGAUGAUGCCUGAAGAGCCUUGGUUUUUUG is higher in “polymerase ribozyme fitness (log ratio)” value: -2.46 for the first, 0.00657 for the second.

Compared with GACCAAUCGGCCCUCAGAGCUCGAGAACAUCUUCGGAAGCAGAGGACGAAGGCUUCGGUGGCGCGAUAGCGCCAACGUCCUCAACCUCCAAUGCAUCCCACCACAUGAUGAUGCCUGAAGAGCCUUGGUUUUUUG, GACCCAUCUGCCCUCAGAGCUCGAGAACAUCUUCGGAUGCAGAGGAGGCAGGCUUAGGUGGCGCGAUAGCGCCAACGUCAUCAACCUCCAAUGCAUCCCACCACAUGAUGAUGCCUGAAGAGCCUUGGUUUUUUG is lower in “polymerase ribozyme fitness (log ratio)” value: -3.06 for the first, -3.29 for the second.

Compared with GACCAAUCUGCCCUCAUAGCUCGAGAACAUCUUCGGAUGCAGAGGAGGCAGGCUUCGGUGGCGCGAUAGCGCCAACGAGCUCAACCUCCAAUGCAUCCCACCACAUGAUGAUGCUUGAAGAGCCUUGGUUUUUUG, GACCAAUCUGCCCUCAGAGCUCGAGAACAUCUUCGGAUGGAGAGGAGGCAGGCUUUGGUGGCGCGAUAGCGCCAACGUCCUCAACCUCCAAUGCAUCCCACCACAUGAUGAUGCCUGAAGAGCCUUGGUUUUUUG is higher in “polymerase ribozyme fitness (log ratio)” value: -6.15 for the first, -1.79 for the second.

First: GACCAAUCAGCCCUCAGAGCUCGAGUACAUCUUCGGAUGGAGAGGAGGCAGGCUUCGCUGGCGCGAUAGCGCCAACGUCCUCAACCUCCAAUGCAUCCCACCACAUGAUGAUGCCUGAAGAGCCGUGGUUUUUUG
Second: GACCAAUCUGCCCUCAGAGCUCGAGAACAUCUUCGGUUGCAGAGGAGGCAGGCUUCGGUGGCGCGAUAGCGCCAACGUCCUCAACCUCCAAUGCAUCCCACCACAUGAUGAUGCAUGAAGAGCCUUGGUUUUUUG
The “polymerase ribozyme fitness (log ratio)” value of the first is lower: -4.12 for the first, -0.816 for the second.

Compared with GACCAAGCUGCGCUCAUAGCGCGAGAACAUCUUCGGAUGCAGAGGAGGCAGGCUUCGGUGGCGCGAUAUCGCCAACGUCCUCAACUUCCAAUGCAUCCCACCACAUGAUGAUGCCUGAAGAGCAUUGGUUUUUUG, GACCAAUCUGCUCUCAGAGCUCGAGAACAUCUUCGGAUGCAGAGGCUGCAGGCUUCGGUGGCGCGAUAGCGCCAACGUCCUCAACAUCCAAUGCAUCCCACCACAUGGUGAUGCCUGAAGAGCCUUGGUUUUUUG is higher in “polymerase ribozyme fitness (log ratio)” value: -6.15 for the first, -1.87 for the second.

Going from GACCAAUCUGCCCUCAGAGCUGGAGAACAUCUUCGGAUGCAGAGGAGGAAGGCUUCGGUGGCGCGAUAGCGCCAACGUCCUCAACCUCCAAUGCAUCCCACCACAUGAUGAUGCCUUAAGAGCCUUGGUUUUUUG to GACCAAUCUGCCCUCAGAGCUCGAGAACUUCUUCGGAUGCAGAGGAGGCAGACUUCGGUGGCGCGAUAGCGCCAACGUCCUCAACCUCCAAUGCAUCCCACCACAUGAUGAUACCUGAAGAGCCUUGGUUUUUUG, the “polymerase ribozyme fitness (log ratio)” value rises from -3.11 to -2.09.

First: GACCAAUCUGCCCUCAGAGCUCGAGAACAUCUUCCGAUGCAGAGGAGGCAGGCUUCGGUGGCGCGAUAGCGCCAACGUCCUCAACCACCAAUGCAUCCCACCACAUGAUGAUGCCUGAAGAGCCUUGGUUUUUUG
Second: GACCAAUCUGCCCUCAGAGCUCGAGAACAUCUUCGGAUGCAGAGGAGGCAAGCUUCGGUGGCGCGAUAGCGCCAACGUCCUCAACCUCCAAUGCAACCCACCACAUGAUGAUGCCUGAAGAGCCUUGGUUUUUUG
The “polymerase ribozyme fitness (log ratio)” value of the first is lower: -5.04 for the first, -4.59 for the second.

GACCAAACUGCCCUCAGAGCUCGAGAACAUCUUCGGAUGAAGAGGAGGCAGGCUUCGGUGGCGCGAUAGCUCCAACGUCCUCAACCUCGAAUGCAUCCCACCCCAUGAUGAUGCCUGAAGAGCUUUGGUUUUUUG and GACCAAUCUGCCCUCAGAGCUCGAGAACAUCUUCGGUUGCAGAGGAGGCAGGCUUCGGUAGCGCGAUAGCGCCAACGUCCUCAACCUCCAAUCCAUCCCACCACAUGAUGACGCGUGAAGAUCCUUGGUAUUUUG are within 0.2 log units of each other in “polymerase ribozyme fitness (log ratio)” value: -6.17 for the first, -6.13 for the second.

Compared with GACCAAUCUGCCCUUAGAGCUCGAGAACAUCUUCGGAUGCAGAGGAGGCAGGCUUCGGUGGCGCGAUAGCCCCAACGUCGUCAACCUCCAAUGCAUCCCACCACAUGAUGAUGCCUGAAGAGCCUUGGUUUUUUG, GACCAAUCUGCUCUCAGAGCUCGAGAACAUCUUCGGAUGCAGAGGAGGCUGGCUUCGGUGGCGCGAUAGCGCUAACGUCCUCAACCUCCAAUGCAUCCCACCACAUGAUGAUGCCUGAAGAGCCAUGGUUUUUUG is higher in “polymerase ribozyme fitness (log ratio)” value: -6.22 for the first, -0.873 for the second.

Going from GACCAAUCUGCCCUCAGAGCUCGAGAACAUCUUCGGAUGCAGAGGAGGCAGGCUUCGGUGGCGCGAUAGCGCCAACGUCCUCAACCGCCAAUGCAUCCCACCACAUGAUGUUGCCUGAAGAGCCUUGGUUUUUUG to GACCAGUGUGCCCUCAGAGCUCGAGAACAUCUUCGGAUGCAGAGGAGGCAGGCUUCGGUGGCGCGAUAUCGCCAACGUCCUCAACCUCCAAUGCAUCCCACCACAUGAUGAUGCCUGAAGAGCCUUGGUUUUUUG, the “polymerase ribozyme fitness (log ratio)” value rises from -2.77 to 0.471.

Going from GACCAAUCUGCCCUCAGAGCUCGAGAGCAUCUUCGGAUGCAGAGGAGGCAGGCUUCGGUGGGGCGAUAGCGCCAACGUCCUCGACUUCCAAUGCAUCCCACCACAUGAUGAUGCCUGAAGAGCCUUGGUUUUUUG to GACCAAUCUGCCCUCAGAGCUCGAGAACAUCUUCGGAUGCAGAGGAGGCAGGGUUCGAUGGCGCGAUAGCGCCAACGUCCUCAACCUCCAAUGCAUCCCACCACAUGAUGAUGCAUGAAGAGCCUUGGUUUUUUG, the “polymerase ribozyme fitness (log ratio)” value rises from -5.4 to -0.718.

Going from GACCAAUCUGCCCUCAGAGCUCGAGAACAUCUUCGGAUGCAGAGGAGGCAGGCUUCGGUGGCGCGAUAGCGCCAACGUCCUCAACCUCCAAUGCAUCCCACCACACGAUGAUCCCUGAAGAGCCUUGGUUUUUUG to GACCAAUCUGCCCUCAGAGCUCGAGAACAUCUUCGGAUGCAGAGGAGGCAGGCUUCGGUGGCGCGAUAGCGCCAACGUACUCAACCUCCAAUGCGUCCCAUCACAUGAUGAUGCCUGAAGAGUCUUGGUUUUUUG, the “polymerase ribozyme fitness (log ratio)” value falls from -2.72 to -4.17.

Going from GACCAAUCUGCCAUCAGAGCUCGAGAACAUCUUCGGAUGCAGACGAGGCAGGCUUUGGUGGCGCGAUAGCGCCAACGUCCUCAACCUCCAAUGCAUCCCACCACAUGAUGAUGCCUGAAGAGCAUUGGUUUUUUG to GACCAAUCUGCCCUCAUAGCUCGAGAACAUCUUCGGAUGCAGAGGAGGCAGUCUUCGGUGGAGCGAUAGUGCCAACGUCCUCAACCUCCAAUGCAUCCCACCACAUGAUGAUGCCUGAAGAGCCUUGGUUUUUUG, the “polymerase ribozyme fitness (log ratio)” value falls from 0.969 to -4.32.

Going from GACCAAUCUGCCCUCAGAGCUCGAGAACAUCUUCGGAUGCAGAGGUGGCAGGCUUCGGUGGCGCGAUAGCGCCAACGUCCUCAACCUCCCAUGCAUCCCACCACAUGAUGAUGCCUGAAGAGCCUUGGUUUUAUG to GACCAAUCUGCCCUCAGAGCUCGAGAACGUCUUCGGAUGCAGAGGAGGCAGGCUUCGGUGGCGCGAUAGUGCCAACGUCCUCAACCUCCAAUUCAUCCCACCACAUGAUGAUGCCUGAAGAGCCUUGGUUUUUUG, the “polymerase ribozyme fitness (log ratio)” value falls from -1.74 to -3.

First: GACCAAUGUGCCCUCAGAGCUCGAGAACAUCUUCGGAUGCAGAGGAGGCAGGCUUCGGUGGCGCGAUAGCGCCAACGUCCUCAACCUCCAAUGCAUCCCACCACAUGAUGAUGCCUUAAGAGCCUUGGUUUUUUG
Second: GACCAAUCUGCCCUCAGAGCUCGAGAACAUCUUCGGAUGCAGAGGAGGCAGGCUUCGGUGGCGCGAUAGCGCCAACGUCCUCAACCUCCGAUGCAUCCCACCACAUGAUGAAGCCUGAAGAGCCUUGGUUUUUUG
The “polymerase ribozyme fitness (log ratio)” value of the first is lower: -1.44 for the first, 1.08 for the second.

First: GACCAAUCUGCCCUCAGAGCUCGAGAACAUCUUCGGAUGCAGAGGAGGCAGGCUCCGGUGGCGCGAUAGCGCCAACGUCCUCAAACUCCAAUGCAUCCCACCACAUGAUGAUCCCUGAAGAGCCUUGGUUUUUUG
Second: GACCAAUCUGCACUCAGAGCUCGAGAACAUCUUCGGAUGCAGAGGAAGCAGGCUUCGGUGGCGCGAUAGCGCCAACGUCCUCAACCUCCAAUGCAUCCCACGACAUGAUGCUGCCUGCAGAGCCUUGGCUUUUUG
The “polymerase ribozyme fitness (log ratio)” value of the first is higher: -3.66 for the first, -7.59 for the second.

Compared with GACCAAUCUGCCCUUAGAGCUCGAGAACAUCUUCGGAUGCAGAGGAGGCAGGCUUCGGUGGCGCGAUAGCGCCAACGUCCUCAACCUCCAAUGCAUCCCACCACAUGAUGAUGACUGAAGAGCCUUGGUUUUUUG, GACCAAUCUGCCCUCAGAGCUCGAGAACAUCUUCGGAUGCAGAGGAGGCAGGCUUCGGUGGCGCGAUAGCGCCAACGUCCUCAACCUCCCACGCAUCCCACAACAUGAUGAUGCCUGAACAGCCUUGGUUUAUUG is lower in “polymerase ribozyme fitness (log ratio)” value: -3.36 for the first, -4.27 for the second.

Compared with GACCAAUCUGCCCUCAGAGCUCGAGAACAUCUUCGGAUGCAGGGGAGGCAGGCUUCGGUGGCGCGAUAGUGCCAACGUCCUCAACCUCCAAUGCAUCCCACCACAUGAUGAUGCCUGAAUAGCCUUGUUUUUUUG, GACCAAUCUGCCCUCAGAGCUCGAGAACAUCUUCGGAUGCAGAGGAGGCAGGCUUCGGUGGCGCGAUAGCGCCAACGACCUCAACCUCCAAGGCAUCCCACCACAUGAUGAUGCCUGAAGAGCCGUGGUUUUUUG is lower in “polymerase ribozyme fitness (log ratio)” value: -3.88 for the first, -4.08 for the second.

First: GACCAAUCUGCCCUCAGAGCUCGAGAACAUCUUCGGAUGCAGAGGAGGCAGGCUUCGGUGGCGCGAUAGCGCCAACGUCCUCAACCUCCAAUGCAUCCCACCUCAUGAUGAUGCCUGAAGAGCGUUGGUUUUUUG
Second: GACCAAUCUGCCCUCAGAGCUCGAGAACAUCUUCGGAUGCAGAGGAGGCAGGCUUCGGUGGUGCGAUAGCGCCAACGUCCUCAACCUCCAUUGCAUCCCACCACAUGAUGAUGCCUGAAAAGCCUUGGUUUUUUG
The “polymerase ribozyme fitness (log ratio)” value of the first is lower: -3.17 for the first, -2.6 for the second.

Going from GACCAAUCUGCCGUCAGAGCUCGAGAACAUCUUCGGAUGCAGAGGAGGCAGGCUUCGGUUGCGCGAUAGCGCCAACGUCCUCAACCUCCAAUACAUCCCACCAUAUGAUGAUGCCUGAAGAGCCUUGGAUUUUUG to GACCAAUCUGCCCUCAGAGAUCGAGAACAUCUUCGGAUGCAGAGGAGGGAGGCUUCGGUGGCGCGAUAGCGCCAACGUCCUCAACCUCCAAUACAUCCCACCACAUGAUGAUGCCUGAAGAGCCUUGGUUUUUUG, the “polymerase ribozyme fitness (log ratio)” value rises from -4.29 to -3.77.
